Results: publication PMC4036204, “The DDN Catalytic Motif Is Required for Metnase Functions in Non-homologous End Joining (NHEJ) Repair and Replication Restart*”

How the values were obtained:
Experiment in all cases: fluorescence polarization; FP: 50 mM HEPES pH 7.0, 150 mM NaCl, 10 nM probe, temperature not stated; EMSA: 50 mM HEPES-KOH pH 7.8, 50 mM NaCl, 0.2 ug poly(dI:dC), 0.2 ug/ul BSA, room temperature 15 min
[1] = target: T1, Metnase transposase domain N610E (UniProt Q53H47 342-684, N623E); details: protein: recombinant; tags: His6-SUMO cleaved by Ulp1; label: 5' rhodamine; single strand
T1 sequence: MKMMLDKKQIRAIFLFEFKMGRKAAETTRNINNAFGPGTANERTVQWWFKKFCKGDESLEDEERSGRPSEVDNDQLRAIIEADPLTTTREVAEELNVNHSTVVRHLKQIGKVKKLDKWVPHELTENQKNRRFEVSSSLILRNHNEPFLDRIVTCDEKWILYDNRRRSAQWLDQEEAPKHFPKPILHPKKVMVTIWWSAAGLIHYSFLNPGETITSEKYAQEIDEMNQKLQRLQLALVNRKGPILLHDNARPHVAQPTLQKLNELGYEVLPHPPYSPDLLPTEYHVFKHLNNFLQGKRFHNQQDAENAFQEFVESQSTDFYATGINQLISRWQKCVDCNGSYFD

[2] = target: T2, Metnase DNA-binding domain WT (UniProt Q53H47 342-453); details: protein: recombinant, tags: His6-SUMO cleaved by Ulp1
T2 sequence: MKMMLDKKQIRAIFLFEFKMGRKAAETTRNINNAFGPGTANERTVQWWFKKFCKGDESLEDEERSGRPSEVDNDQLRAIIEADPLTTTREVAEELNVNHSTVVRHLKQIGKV

[3] = target: T3, Metnase transposase domain N610D (UniProt Q53H47 342-684, N623D); details: protein: recombinant; tags: His6-SUMO cleaved by Ulp1; label: 5' rhodamine; single strand
T3 sequence: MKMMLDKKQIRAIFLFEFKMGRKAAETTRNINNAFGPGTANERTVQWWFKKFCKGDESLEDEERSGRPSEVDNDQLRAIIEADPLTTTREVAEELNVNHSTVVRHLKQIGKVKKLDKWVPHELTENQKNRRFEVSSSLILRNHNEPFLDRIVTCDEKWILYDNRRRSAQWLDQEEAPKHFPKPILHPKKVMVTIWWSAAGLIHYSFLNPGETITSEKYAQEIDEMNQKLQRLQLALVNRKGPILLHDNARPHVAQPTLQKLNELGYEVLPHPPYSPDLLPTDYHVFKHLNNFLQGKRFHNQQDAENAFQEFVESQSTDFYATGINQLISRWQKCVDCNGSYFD

Mos1 transposase WT = target: T4, Mos1 transposase WT (UniProt Q7JQ07 1-345); details: protein: recombinant; tags: His6-SUMO cleaved by Ulp1; label: 5' rhodamine; single strand
T4 sequence: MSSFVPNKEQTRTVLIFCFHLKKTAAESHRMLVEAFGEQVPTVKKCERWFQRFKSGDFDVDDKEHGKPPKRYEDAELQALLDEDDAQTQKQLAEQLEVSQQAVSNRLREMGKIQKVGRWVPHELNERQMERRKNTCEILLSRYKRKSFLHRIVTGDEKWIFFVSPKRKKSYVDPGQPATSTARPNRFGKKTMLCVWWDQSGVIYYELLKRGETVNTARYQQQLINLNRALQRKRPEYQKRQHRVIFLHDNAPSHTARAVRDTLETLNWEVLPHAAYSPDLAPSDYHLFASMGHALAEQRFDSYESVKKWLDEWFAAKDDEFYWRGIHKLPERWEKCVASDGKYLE

[4] = target: T5, Metnase transposase domain WT (UniProt Q53H47 342-684); details: protein: recombinant, tags: His6-SUMO cleaved by Ulp1
T5 sequence: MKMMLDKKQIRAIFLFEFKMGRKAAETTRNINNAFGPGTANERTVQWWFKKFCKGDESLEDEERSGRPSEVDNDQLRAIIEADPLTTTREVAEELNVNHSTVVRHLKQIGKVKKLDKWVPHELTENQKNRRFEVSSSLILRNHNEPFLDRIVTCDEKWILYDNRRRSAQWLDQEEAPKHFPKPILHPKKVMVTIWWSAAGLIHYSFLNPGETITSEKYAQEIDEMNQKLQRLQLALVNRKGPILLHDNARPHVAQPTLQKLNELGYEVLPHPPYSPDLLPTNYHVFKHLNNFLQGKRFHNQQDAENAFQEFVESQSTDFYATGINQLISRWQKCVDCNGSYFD

Mos1 transposase D284N = target: T6, Mos1 transposase D284N (UniProt Q7JQ07 1-345, D284N); details: protein: recombinant; tags: His6-SUMO cleaved by Ulp1; label: 5' rhodamine; single strand
T6 sequence: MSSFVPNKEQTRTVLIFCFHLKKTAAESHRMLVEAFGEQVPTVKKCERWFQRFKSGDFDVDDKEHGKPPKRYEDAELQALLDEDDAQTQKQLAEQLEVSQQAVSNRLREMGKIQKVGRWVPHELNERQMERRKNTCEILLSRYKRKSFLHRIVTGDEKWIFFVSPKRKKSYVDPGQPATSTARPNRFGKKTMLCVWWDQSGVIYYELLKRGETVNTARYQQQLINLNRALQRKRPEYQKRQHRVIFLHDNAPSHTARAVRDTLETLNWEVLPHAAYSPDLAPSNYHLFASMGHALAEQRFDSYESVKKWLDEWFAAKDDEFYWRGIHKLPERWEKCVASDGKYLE

[5] = target: T7, Metnase catalytic domain WT (UniProt Q53H47 446-684); details: protein: recombinant, tags: N-terminal His tag removed by thrombin
T7 sequence: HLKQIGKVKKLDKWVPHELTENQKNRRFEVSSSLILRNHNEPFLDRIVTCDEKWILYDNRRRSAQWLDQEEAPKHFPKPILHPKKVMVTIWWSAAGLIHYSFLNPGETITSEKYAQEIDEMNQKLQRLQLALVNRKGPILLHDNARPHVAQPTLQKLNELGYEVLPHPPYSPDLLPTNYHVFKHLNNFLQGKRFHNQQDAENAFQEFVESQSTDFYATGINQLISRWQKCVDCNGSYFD

[6] = label: 5' rhodamine, single strand
[7] = label: 5' rhodamine on strand 1, blunt

B1: 25-nt TIR ssDNA (ssDNA)
DNA: AACCGCAATTACTTTTGCACCAACC
modifications: 5' C6-amino linker
Kd [1]: 3.2 ± 0.4 µM
binding result [2, 6]: no binding
Kd [3]: 3.3 ± 1.1 µM
Kd (Mos1 transposase WT): 33 ± 9 nM
Kd [4, 6]: 277 ± 26 nM
Kd (Mos1 transposase D284N): 33 ± 12 nM
Kd [5, 6]: 295 ± 47 nM

B2: 28-bp blunt TIR dsDNA (dsDNA)
DNA 1: AACCGCAATTACTTTTGCACCAACCTAA
DNA 2: TTAGGTTGGTGCAAAAGTAATTGCGGTT
modifications: 5' C6-amino linker on strand 1
Kd [2, 7]: 3.2 ± 0.9 nM
Kd ([4]; chain copies: 2, label: 5' rhodamine on strand 1, blunt): 7.9 ± 1.9 nM
Kd [5, 7]: 4700 ± 800 nM

B3: 25/31-mer TIR partial duplex (dsDNA)
DNA 1: AACCGCAATTACTTTTGCACCAACC
DNA 2: TCAGTAGGTTGGTGCAAAAGTAATTGCGGTT
modifications: 5' C6-amino linker on strand 1
Kd ([4]; chain copies: 2, label: 5' rhodamine on strand 1, 5' overhang 6 nt on strand 2): 11.9 ± 2.5 nM
